The results in this text go back to paper PMC12691639.

Broadly, the stoichiometry N is the number of molecules, sites or subunits per partner or assembly.

For the assay, the target named is K62-HA (K62 killer toxin with a C-terminal hemagglutinin tag), expressed by S. cerevisiae (Saccharomyces paradoxus).

In turn, “K62-HA (K62 killer toxin with a C-terminal hemagglutinin tag), expressed by S. cerevisiae (natural protein)” came in with a stoichiometry N of 2.
